Assay results from patent US20120237948A1 (published 2012).
Square brackets hold non-standard residues; d marks the D form. Ends that are not written are not given here. Hyp = O=C(O)[C@@H]1C[C@@H](O)CN1

Experiments:
Assay in all cases: competitive ELISA
[1] = target: T1, peptide Gly-Glu-Pro-Gly-Asp-Asp-Gly-Pro-Ser-Gly-Ala-Glu-Gly-Pro-HyP-Gly-Pro-Gln-Gly (SEQ ID NO: 17)
T1 peptide: GEPGDDGPSGAEGP[Hyp]GPQG

[2] = target: T2, peptide Gly-Pro-Pro-Gly-Pro-Gln-Gly-Leu-Ala-Gly-Gln-Arg (SEQ ID NO: 16)
T2 peptide: GPPGPQGLAGQR

[3] = target: T3, peptide Gly-Glu-Pro-Gly-Asp-Asp-Gly-Pro-Ser-Gly-Ala-Glu-Gly-Pro-Pro-Gly-Pro-Gln-Gly (SEQ ID NO: 18)
T3 peptide: GEPGDDGPSGAEGPPGPQG

[4] = target: T4, neoepitope peptide Gly-Pro-Gln-Gly (SEQ ID NO: 15)
T4 peptide: GPQG

[5] = target: neoepitope peptide Asp-Gly-Pro-Ser-Gly-Ala-Glu-Gly-Pro-HyP-Gly-Pro-Gln-Gly (SEQ ID NO: 14) (hydroxyproline (HyP) at position 10 of the peptide (position 971))

IC50 [1]: 20 nM
IC50 [2]: 20.2 µM
IC50 [3]: 22 nM
IC50 [4]: 99 µM
IC50 [5]: 40 nM
B1: anti-neoepitope antibody 20A10 (antibody, V domains shown)
VH: QIQLVQSGPELKEPGETVRISCKASGYTFTKYGINWVKQAPGKGLEWMAWINTYSGMTTYADDFKGRFAFSLETSANTAYLQINHLKNDDTATYFCARSLGYDYGGFAYWGQGTLVTVSA
VL: DVLLTQTPLSLPVSLGDQAFISCRSGQTLVHDNENTYFHWYLQKPGQSPKLLIYKISNRFSGVPDRFSGSGSGTDFTLKISRVEPEDLGIYFCSQNTHVPFTFGSGTKLEIKR
